The source of these data is PMC3179519.

This assay addresses Salmonella SJW1660 flagellin capable of forming L-type straight filaments (Salmonella (S. typhimurium)) (UniProt P06179). Nature of the assay: co-sedimentation; monomers of SJW1660 flagellin and FliC(XynA) mixed at 1:1 to 1:5 (w/w) in 20 mM Tris-HCl, 150 mM NaCl (pH 7.8), polymerized with ammonium sulfate (0.4-0.6 M), 2 days at room temperature; centrifuged, pellet dissolved in buffer without AS, SDS-PAGE with densitometry; filaments also seen by dark-field microscopy and AFM.

Turning to “FliC(XynA) fusion protein (flagellin-xylanase A chimera) (from UniProt P18429 29-213)”, the band intensity of FliC(XynA) in the copolymer pellet, 1:1 mixing ratio (FliC band 49.3) came out at 49.6 and the band intensity of FliC(XynA) in the copolymer pellet, 1:2 mixing ratio (FliC band 50.7) was 34.2.
